The target in one experiment is T1, BSA (UniProt P02769 25-607).
T1 construct: also called BSA-coated beads
Kind of experiment: flow cytometry; BSA-coated latex beads, two-colour dot plot of IMM20059 against anti-CD63. (Flow cytometry measures light scatter and fluorescence of single cells or particles in a stream.)

Another experiment concerns the target T2, recombinant PD-L1 (UniProt Q9NZQ7 19-238).
T2 construct: also called Programmed Death Ligand-1
The experiment can be described thus: dot blot; recombinant PD-L1 spotted at 4, 10 and 40 ng, probed with the antibody.

The record followed here is US20210347895A1 (IMMUNOME, published 2021).

T2 sequence (Q9NZQ7 19-238 limits assumed): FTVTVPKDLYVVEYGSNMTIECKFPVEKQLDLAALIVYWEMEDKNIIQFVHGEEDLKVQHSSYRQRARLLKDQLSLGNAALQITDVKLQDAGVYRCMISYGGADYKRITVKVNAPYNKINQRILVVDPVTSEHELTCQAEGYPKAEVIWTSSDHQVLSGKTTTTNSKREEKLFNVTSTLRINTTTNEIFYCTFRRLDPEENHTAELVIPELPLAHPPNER
T1 sequence (P02769 25-607 limits assumed): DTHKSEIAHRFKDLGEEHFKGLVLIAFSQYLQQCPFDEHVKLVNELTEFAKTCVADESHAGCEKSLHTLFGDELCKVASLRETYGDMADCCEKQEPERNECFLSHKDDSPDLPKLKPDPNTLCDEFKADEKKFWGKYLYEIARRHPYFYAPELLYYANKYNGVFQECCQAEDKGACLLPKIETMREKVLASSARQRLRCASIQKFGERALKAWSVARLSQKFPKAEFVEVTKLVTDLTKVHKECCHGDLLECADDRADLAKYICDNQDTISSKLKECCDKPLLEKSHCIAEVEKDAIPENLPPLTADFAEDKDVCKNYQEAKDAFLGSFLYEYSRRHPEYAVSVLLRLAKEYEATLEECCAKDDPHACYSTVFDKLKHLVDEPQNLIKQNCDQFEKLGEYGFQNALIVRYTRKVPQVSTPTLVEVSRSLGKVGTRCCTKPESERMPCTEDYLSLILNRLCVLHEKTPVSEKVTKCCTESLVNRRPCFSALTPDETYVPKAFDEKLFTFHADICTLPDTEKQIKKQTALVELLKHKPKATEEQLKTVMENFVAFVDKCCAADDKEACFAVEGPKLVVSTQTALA
Text for recombinant PD-L1: Binding activity of anti-EPN1/anti-PD-L1 DVD-IgG bispecific antibodies. […] Purified recombinant proteins were spotted at three dose levels as depicted in FIG. 10, and probed with the four anti-EPN1/anti-PD-L1 bispecific antibodies. […] An antibody specific for a coat protein on the dengue virus served as a negative control.

B1: IMM20059 (antibody, V domains shown)
VH: EVQLVESGGGLVQPGGSLRLSCAASGFTFSIHSLNWVRQAPGKGLEWVSYISSNSTTIYYADSVKGRFTISRDNAKDSLYLQMNSLRDEDTAVYYCARDYYCTGGTCFFLPDLWGRGALVTVSS
VL: EIVLTQSPATLSLSPGERATLSCRASQNISNFLAWYQHKPGQAPRLLIYDASIRATGIPARFSGSGSGTDFSLTISSLEPEDFAVYFCQQRYNWLTFGGGTKVEIKR
notes: Recombinantly expressed human IgG1 with the PR045-2H11 VH and VL domains
Consider B1, for which the binding result with BSA is given as “no binding”; with recombinant PD-L1, “no binding (tested: 40 ng)”.
